Reference: US20200277369A1 (Novartis, published 2020)

Target: T1, human homodimer IL-17A (human, UniProt Q16552 24-155)
T1 construct: Homodimer as printed; also called interleukin-17A
Assay: not stated (affinity given in running text of Example 1, no method)

T1 sequence (Q16552 24-155 limits assumed): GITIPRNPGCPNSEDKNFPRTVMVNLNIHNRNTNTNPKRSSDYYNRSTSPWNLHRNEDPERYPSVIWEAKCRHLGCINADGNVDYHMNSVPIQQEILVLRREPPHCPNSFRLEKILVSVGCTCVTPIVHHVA

B1: CJM112 (antibody, V domains shown)
VH: EVQLVESGGDLVQPGGSLRLSCAASGFTFSSYWMSWVRQAPGKGLEWVANIKQDGSEKYYVDSVKGRFTISRDNAKNSLYLQMNSLRAEDTAVYYCARDRGSLYYWGQGTLVTVSS
VL: AIQLTQSPSSLSASVGDRVTITCRPSQGINWELAWYQQKPGKAPKLLIYDASSLEQGVPSRFSGSGSGTDFTLTISSLQPEDFATYYCQQFNSYPLTFGGGTKVEIK
B1 gave a Kd of 6 pM.
